Patent US20220162313A1 (Xencor, published 2022)

Biological target: T1, human SSTR2 (human, UniProt P30874 1-369)
T1 construct: whole, on cells; also called human somatostatin receptor 2; cell surface human SSTR2
Experiment: flow cytometry on human SSTR2-transfected CHO cells, PE-labeled secondary antibody
Method: Cell surface binding of anti-SSTR2 antibodies and exemplary anti-SSTR2×anti-CD3 bispecific antibodies were assessed using human SSTR2-transfected CHO cells. Cells were incubated with indicated test articles for 45 minutes on ice and centrifuged. Cells were resuspended with staining buffer containing phycoerythrin (PE) labeled secondary antibody (2 μg/mL; goat anti-human IgG) and then incubated for 45 minutes on ice. Cells were centrifuged twice and then resuspsended with staining buffer. Binding was measured by flow cytometry (FIGS. 17A-P).
Cell surface binding of XmAb18087 and control anti-RSV×anti-CD3 bispecific antibody (XENP13245) were assessed using humanSSTR2-transfected CHO cells and cynoSSTR2-transfected CHO cells. Cell surface binding was also assessed using parental CHO cells as control. Binding was measured by flow cytometry using phycoerythrin (PE) labeled secondary antibody as generally described in Example 1C.

T1 sequence (P30874 whole entry): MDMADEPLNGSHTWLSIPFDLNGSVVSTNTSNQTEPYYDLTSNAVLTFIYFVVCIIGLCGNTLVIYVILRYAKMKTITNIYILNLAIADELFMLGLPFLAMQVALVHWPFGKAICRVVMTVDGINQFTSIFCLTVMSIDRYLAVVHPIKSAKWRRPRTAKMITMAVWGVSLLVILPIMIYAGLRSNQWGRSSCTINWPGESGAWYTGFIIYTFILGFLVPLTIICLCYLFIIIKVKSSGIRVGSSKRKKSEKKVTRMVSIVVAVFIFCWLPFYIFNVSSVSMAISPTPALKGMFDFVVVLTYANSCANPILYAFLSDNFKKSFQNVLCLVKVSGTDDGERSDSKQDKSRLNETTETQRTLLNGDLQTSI

binding result: binds
B1: XmAb18087 (bispecific antibody)
heavy: EVQLVESGGGLVQPGGSLRLSCAASGFTFSDYGMAWFRQAPGKGLEWVSFISNLGYSIYYADSVKGRFTISRDNAKNSLYLQMNSLRAEDTAVYYCARAPYDYDSFDPMDYWGQGTLVTVSSASTKGPSVFPLAPSSKSTSGGTAALGCLVKDYFPEPVTVSWNSGALTSGVHTFPAVLQSSGLYSLSSVVTVPSSSLGTQTYICNVNHKPSDTKVDKKVEPKSCDKTHTCPPCPAPPVAGPSVFLFPPKPKDTLMISRTPEVTCVVVDVKHEDPEVKFNWYVDGVEVHNAKTKPREEEYNSTYRVVSVLTVLHQDWLNGKEYKCKVSNKALPAPIEKTISKAKGQPREPQVYTLPPSREEMTKNQVSLTCDVSGFYPSDIAVEWESDGQPENNYKTTPPVLDSDGSFFLYSKLTVDKSRWEQGDVFSCSVMHEALHNHYTQKSLSLSPGK
chain: not shown
light: not shown
notes: also called XENP18087; XENP018087
